Experimental data taken from patent US20090142784.

Assays:
[1] = test system: T1, LRRKtide peptide (RLGRDKYKTLRQIRQ)
T1 sequence: RLGRDKYKTLRQIRQ

[2] = test system: T2, LongLRRKtide (RLGRDKYKTLRQIRQGNTKQR)
T2 sequence: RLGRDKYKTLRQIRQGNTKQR

GST-LRRK2[1326-2527]
Km (phosphorylation of LRRKtide, P81 paper 32P assay) [1]: a similar Km of approximately 200 µM | affinity relative to LRRKtide (from phosphorylation with LRRK2) [2]: The LRRK2 affinity for the longLRRKtide is ten fold more than that that of LRRKtide
